Data on six molecules can be found in patent US10357539B2, “Use of peptides that block metadherin-SND1 interaction as treatment for cancer” (THE TRUSTEES OF PRINCETON UNIVERSITY, priority 2014, dated 2019).

T1: MTDH (364-582) (Homo sapiens, UniProt Q86UE4)
T1 construct: made in house; host or cells: E. coli DH5α
T1 sequence (Q86UE4 364-582): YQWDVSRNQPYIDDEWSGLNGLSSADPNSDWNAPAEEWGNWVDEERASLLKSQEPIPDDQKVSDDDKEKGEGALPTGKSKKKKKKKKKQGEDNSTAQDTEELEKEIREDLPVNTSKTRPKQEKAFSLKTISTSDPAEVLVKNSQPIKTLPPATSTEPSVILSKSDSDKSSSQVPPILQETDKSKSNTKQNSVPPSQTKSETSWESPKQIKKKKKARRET

T2: SND1 (Homo sapiens, UniProt Q7KZF4)
T2 construct: Full-length HA-tagged SND1 was co-expressed with full-length Myc-tagged wild-type (WT) or mutant MTDH in HEK293T cells; expressed in transfected cells; host or cells: HEK293T
T2 sequence (Q7KZF4 1-910): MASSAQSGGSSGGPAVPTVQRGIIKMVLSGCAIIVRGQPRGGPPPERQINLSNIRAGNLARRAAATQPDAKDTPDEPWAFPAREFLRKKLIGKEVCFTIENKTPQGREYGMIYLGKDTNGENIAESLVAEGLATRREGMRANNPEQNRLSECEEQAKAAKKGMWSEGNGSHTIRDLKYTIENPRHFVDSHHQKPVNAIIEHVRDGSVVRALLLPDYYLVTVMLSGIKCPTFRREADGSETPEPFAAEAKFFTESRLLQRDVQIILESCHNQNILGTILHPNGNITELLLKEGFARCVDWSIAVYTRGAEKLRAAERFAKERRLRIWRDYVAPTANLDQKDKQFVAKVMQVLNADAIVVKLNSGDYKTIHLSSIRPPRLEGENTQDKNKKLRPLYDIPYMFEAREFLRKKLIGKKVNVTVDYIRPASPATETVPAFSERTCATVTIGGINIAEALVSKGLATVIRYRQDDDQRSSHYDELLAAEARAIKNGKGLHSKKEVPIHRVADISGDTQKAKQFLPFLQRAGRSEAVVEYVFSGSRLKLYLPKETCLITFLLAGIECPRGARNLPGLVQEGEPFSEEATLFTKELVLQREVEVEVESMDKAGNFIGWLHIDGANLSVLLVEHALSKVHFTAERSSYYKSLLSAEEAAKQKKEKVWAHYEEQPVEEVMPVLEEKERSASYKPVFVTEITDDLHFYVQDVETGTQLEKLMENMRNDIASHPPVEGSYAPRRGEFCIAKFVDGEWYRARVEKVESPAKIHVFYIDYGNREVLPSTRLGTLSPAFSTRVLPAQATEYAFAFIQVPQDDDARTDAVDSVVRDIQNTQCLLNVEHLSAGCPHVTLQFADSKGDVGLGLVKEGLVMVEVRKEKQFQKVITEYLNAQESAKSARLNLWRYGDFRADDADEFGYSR

T3: SND1 (Homo sapiens, UniProt Q7KZF4)
T3 construct: 15 μg of His-SND1 (16-339) was added to the resin; made in house; host or cells: E. coli DH5α
T3 sequence (Q7KZF4 16-339): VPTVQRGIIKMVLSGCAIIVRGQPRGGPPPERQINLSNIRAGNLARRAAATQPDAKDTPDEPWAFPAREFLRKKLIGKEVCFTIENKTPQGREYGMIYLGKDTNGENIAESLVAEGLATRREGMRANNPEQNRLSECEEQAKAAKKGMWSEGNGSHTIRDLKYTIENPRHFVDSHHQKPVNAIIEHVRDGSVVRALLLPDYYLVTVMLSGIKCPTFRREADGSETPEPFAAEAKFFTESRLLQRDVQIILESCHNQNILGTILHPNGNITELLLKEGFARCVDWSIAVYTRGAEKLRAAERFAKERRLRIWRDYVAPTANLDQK

B1: SN1/2 domains: SND1 N-terminal SN1/2 domains, amino acids 16-339 of SEQ ID NO: 2 (protein, listed as Homo sapiens)
chain: T3 sequence (Q7KZF4 16-339)
B2: W394D: MTDH single point mutant W394D (protein, UniProt Q86UE4 1-582, looked up, variant W394D)
Protein LYRIC: MAARSWQDELAQQAEEGSARLREMLSVGLGFLRTELGLDLGLEPKRYPGWVILVGTGALGLLLLFLLGYGWAAACAGARKKRRSPPRKREEAAAVPAAAPDDLALLKNLRSEEQKKKNRKKLSEKPKPNGRTVEVAEGEAVRTPQSVTAKQPPEIDKKNEKSKKNKKKSKSDAKAVQNSSRHDGKEVDEGAWETKISHREKRQQRKRDKVLTDSGSLDSTIPGIENTITVTTEQLTTASFPVGSKKNKGDSHLNVQVSNFKSGKGDSTLQVSSGLNENLTVNGGGWNEKSVKLSSQISAGEEKWNSVSPASAGKRKTEPSAWSQDTGDANTNGKDWGRSWSDRSIFSGIGSTAEPVSQSTTSDYQWDVSRNQPYIDDEWSGLNGLSSADPNSDDNAPAEEWGNWVDEERASLLKSQEPIPDDQKVSDDDKEKGEGALPTGKSKKKKKKKKKQGEDNSTAQDTEELEKEIREDLPVNTSKTRPKQEKAFSLKTISTSDPAEVLVKNSQPIKTLPPATSTEPSVILSKSDSDKSSSQVPPILQETDKSKSNTKQNSVPPSQTKSETSWESPKQIKKKKKARRET
B3: W394A: MTDH mutant W394A (protein, UniProt Q86UE4 1-582, looked up, variant W394A)
Protein LYRIC: B2 Protein LYRIC with D394A
B4: W401A: MTDH mutant W401A (protein, UniProt Q86UE4 1-582, looked up, variant W401A)
Protein LYRIC: B2 Protein LYRIC with D394W, W401A
B5: W401D: MTDH single point mutant W401D (protein, UniProt Q86UE4 1-582, looked up, variant W401D)
Protein LYRIC: B2 Protein LYRIC with D394W, W401D
B6: D389R: MTDH single point mutant D389R (protein, listed as Homo sapiens)
chain: B2 Protein LYRIC with A78S, T317A, D389R, D394W

Substitutions are numbered along the chain they refer to. Names and notes keep the numbering of the source. “Also recorded” adds a separate entry of the source.

For the first assay, the target named is T1, MTDH (364-582). Kind of assay: GST-mediated pull-down of SND1 constructs and mutants by GST-tagged MTDH (364-582). It is filed as binding. The settings on record: SND1 mutants in SND1 (16-339). The source says: (§1) (FIG. 22A) In vitro pull-down of SND1 (16-339) by GST-tagged MTDH (364-582) harboring WT or mutant sequence. The proteins bound to GS4B were examined on SDS-PAGE and visualized by Coomassie blue staining. (FIG. 22B) In vitro pull-down of WT and mutant SND1 (16-339) by GST-tagged MTDH (364-582). The bound proteins were examined as in (FIG. 22A). For both (FIG. 22A) and (FIG. 22B), experiments were repeated three times; representative results are shown. The normalized percentage of binding was averaged from three experiments; mean±SEM was shown below the data. (FIG. 22C) HEK293T cells were transfected with human HA-SND1, WT Myc-MTDH or Myc-MTDH with indicated single point mutation. Lysates were immunoprecipitated with anti-Myc antibody and immunoblotted with the indicated antibodies. (FIG. 22D) HEK293T cells were transfected with human Myc-MTDH, WT HA-SND1 or mutant HA-SND1 with indicated single point mutations or deletions. Lysates were immunoprecipitated with anti-Myc and immunoblotted with the indicated antibodies.
(§2) GST-Mediated Pull-Down Assay: ˜20 μg of GST-MTDH (different truncation forms and site mutants) was bound to 10 μl of glutathione resin via GST tag. The resin was washed with 200 μl assay buffer (25 mM Tris, PH8.0, 150 mM NaCl, 3 mM DTT) three times to remove the excess unbound protein. 15 μg of His-SND1 (16-339) was added to the resin in a 100 μl volume suspended in the assay buffer with 2 mg/ml of BSA. The mixture was washed with 200 μl assay buffer twice before examined by SDS-PAGE, and visualized by Coomassie blue staining. The experiments were repeated 3 times and the ratio of SND1 associated with GST-MTDH was analyzed by ImageJ.
For B1, the “MTDH-binding of SND1 domains and mutants, in vitro” value was “bind stoichiometrically with MTDH”.

Another assay deals with T2, SND1. Kind of assay: Co-immunoprecipitation of full-length Myc-MTDH (WT or mutant) and HA-SND1 in HEK293T cells. The settings on record: HEK293T cell lysates, immunoprecipitation and immunoblot. It is filed as cell-based.
Source text: (§3) FIGS. 7A-E represents determination of key regions and residues mediating the MTDH-SND1 interaction. (FIG. 7A) Schematics of MTDH fragments and mutants with indicated SND1-binding capability. + indicates binding and − indicates no binding based on results shown below. Two putative nuclear localization signals are residues 432-451 for NLS2 and residues 561-580 for NLS3. In the enlarged view of the minimal binding region 386-407, 9 residues were targeted for mutagenesis in the current study. […] (FIG. 7B) Pulldown of His6-SND1AC by GST-tagged MTDH fragments with indicated boundaries. The bound proteins were examined by SDS-PAGE and visualized by Coomassie blue staining. (FIG. 7C) Pulldown of His6-SND1ΔC by GST-tagged WT or triple mutant MTDH fragments (364-582). For (FIG. 7B) and (FIG. 7C), 1/10 of the His6-SND1ΔC input was shown, and GST alone was used as a negative control. Representative results of 3 independent experiments are shown. (FIG. 7D, FIG. 7E) Lysates from HEK293T cells expressing the indicated ectopic human SND1, AGO2 or MTDH were immunoprecipitated with anti-Myc and immunoblotted with the indicated antibodies.
as §1
Immunoprecipitation and western blot For immunoprecipitation (IP) experiments, cultured cells were washed in cold PBS and lysed in lysis buffer (20 mM Tris pH 7.4, 0.15 M NaCl, 1 mM EDTA, 1 mM EGTA, 1% Tx-100, 0.0025 M Na2P2O7, 1 mM α-glycerolphosphate, 1 mM Na3VO4, and 1 mM NaF) with an EDTA-free protease inhibitor mixture (Roche Applied Science) and PMSF. Cell lysates were then incubated on ice for 10 min, centrifuged, and precleared by incubating with protein A/G beads (Santa Cruz Biotechnology) for 1 h at 4° C. For IP bead preparation, 30 μl of protein A/G beads were incubated with 5 μg of antibodies for 2 h at 4° C. IPs were carried out for overnight at 4° C., and beads were centrifuged, washed and subsequently boiled for 5 min in SDS protein loading buffer to elute bound protein. IP lysates were subjected to western blotting with indicated antibodies.
Immunoprecipitation and western blot: For in vivo immunoprecipitation (IP) experiments, cultured cells were washed in cold PBS and lysed in lysis buffer (20 mM Tris pH 7.4, 0.15 M NaCl, 1 mM EDTA, 1 mM EGTA, 1% Tx-100, 0.0025 M Na2P2O7, 1 mM β-glycerolphosphate, 1 mM Na3VO4, and 1 mM NaF) with an EDTA-free protease inhibitor mixture (Roche Applied Science) and PMSF. Cell lysates were then incubated on ice for 10 min, centrifuged, and precleared by incubating with protein A/G beads (Santa Cruz Biotechnology) for 1 h at 4° C. For IP bead preparation, 30 μl of protein A/G beads were incubated with 5 μg of antibodies for 2 h at 4° C. IPs were carried out for overnight at 4° C., and beads were centrifuged, washed and subsequently boiled for 5 min in SDS protein loading buffer to elute bound protein. IP lysates were subjected to western blotting with indicated antibodies.
A general note: Immunoblotting shows a protein as a band on a membrane.
In the case of B2, the “interaction of full-length MTDH (WT or mutant) with HA-SND1” value (from here on “interaction of full-length MTDH”) is “completely and not”.

On to B3, for which the “interaction of full-length MTDH” value is recorded as “not”.

Consider B4, for which the “interaction of full-length MTDH” value was “not”.

Regarding B5, the “interaction of full-length MTDH” value is “partially abolished the binding; also recorded: significantly reduced the binding; also recorded: strongly reduced the binding”.

As for B6, the “interaction of full-length MTDH” value was “did not affect the interaction”.

The target of the next assay is T3, SND1. As to the kind of experiment: GST-mediated pull-down of SND1 by GST-tagged MTDH fragments and mutants. The class given is binding. The settings on record: SND1 (16-339); GST-tagged MTDH (364-582).
Source text: as §3, §1, §2
B2: the “SND1-binding of MTDH (364-582) point mutants, in vitro” value (from here on “SND1-binding of MTDH”) is recorded as “abolished or significantly reduced the interaction”.

On to B3, for which the “SND1-binding of MTDH” value is “abolished or significantly reduced the interaction”.

As for B4, the “SND1-binding of MTDH” value is “abolished or significantly reduced the interaction”.

As to B5, the “SND1-binding of MTDH” value was “abolished or significantly reduced the interaction”.

For B6, the “SND1-binding of MTDH” value is listed as “barely had any effect”.
